We go through 5 molecules from patent publication US10286078B2, “Modified therapeutic agents and compositions thereof” (THE CALIFORNIA INSTITUTE FOR BIOMEDICAL RESEARCH, priority 2013, dated 2019).

Read-outs that look alike come from different tables or passages of the source. Where no end group is shown, it is not given here.

Series [1] can be described thus: In vivo pharmacokinetic (PK) study for half-life extension. As to conditions: mouse, plasma, mice. As for the experimental part:
Lipid conjugated relaxin or other therapeutic agents are dosed in mice using sc, po, iv dosing. Plasma levels of TA are determined by ms, lgr7, glp1r and/or gcgr activation at different time points (e.g., i.v. PK 5 min, 0.5 h, 1 h, 2 h 4 h, 8 h, 24 h, 48 h, 96 h & 144 h and s.c. PK. 15 min, 0.5 h, 1 h, 2 h, 4 h, 8 h, 24 h, 48 h, 96 h and 144 h). Select PK data are shown in FIGS. 11, 12, and 15, and Table 2.

In a further series the target is T1, human Nav1.7 (Homo sapiens, UniProt Q15858).
T1 construct: host or cells: HEK293
T1 sequence (Q15858 whole entry): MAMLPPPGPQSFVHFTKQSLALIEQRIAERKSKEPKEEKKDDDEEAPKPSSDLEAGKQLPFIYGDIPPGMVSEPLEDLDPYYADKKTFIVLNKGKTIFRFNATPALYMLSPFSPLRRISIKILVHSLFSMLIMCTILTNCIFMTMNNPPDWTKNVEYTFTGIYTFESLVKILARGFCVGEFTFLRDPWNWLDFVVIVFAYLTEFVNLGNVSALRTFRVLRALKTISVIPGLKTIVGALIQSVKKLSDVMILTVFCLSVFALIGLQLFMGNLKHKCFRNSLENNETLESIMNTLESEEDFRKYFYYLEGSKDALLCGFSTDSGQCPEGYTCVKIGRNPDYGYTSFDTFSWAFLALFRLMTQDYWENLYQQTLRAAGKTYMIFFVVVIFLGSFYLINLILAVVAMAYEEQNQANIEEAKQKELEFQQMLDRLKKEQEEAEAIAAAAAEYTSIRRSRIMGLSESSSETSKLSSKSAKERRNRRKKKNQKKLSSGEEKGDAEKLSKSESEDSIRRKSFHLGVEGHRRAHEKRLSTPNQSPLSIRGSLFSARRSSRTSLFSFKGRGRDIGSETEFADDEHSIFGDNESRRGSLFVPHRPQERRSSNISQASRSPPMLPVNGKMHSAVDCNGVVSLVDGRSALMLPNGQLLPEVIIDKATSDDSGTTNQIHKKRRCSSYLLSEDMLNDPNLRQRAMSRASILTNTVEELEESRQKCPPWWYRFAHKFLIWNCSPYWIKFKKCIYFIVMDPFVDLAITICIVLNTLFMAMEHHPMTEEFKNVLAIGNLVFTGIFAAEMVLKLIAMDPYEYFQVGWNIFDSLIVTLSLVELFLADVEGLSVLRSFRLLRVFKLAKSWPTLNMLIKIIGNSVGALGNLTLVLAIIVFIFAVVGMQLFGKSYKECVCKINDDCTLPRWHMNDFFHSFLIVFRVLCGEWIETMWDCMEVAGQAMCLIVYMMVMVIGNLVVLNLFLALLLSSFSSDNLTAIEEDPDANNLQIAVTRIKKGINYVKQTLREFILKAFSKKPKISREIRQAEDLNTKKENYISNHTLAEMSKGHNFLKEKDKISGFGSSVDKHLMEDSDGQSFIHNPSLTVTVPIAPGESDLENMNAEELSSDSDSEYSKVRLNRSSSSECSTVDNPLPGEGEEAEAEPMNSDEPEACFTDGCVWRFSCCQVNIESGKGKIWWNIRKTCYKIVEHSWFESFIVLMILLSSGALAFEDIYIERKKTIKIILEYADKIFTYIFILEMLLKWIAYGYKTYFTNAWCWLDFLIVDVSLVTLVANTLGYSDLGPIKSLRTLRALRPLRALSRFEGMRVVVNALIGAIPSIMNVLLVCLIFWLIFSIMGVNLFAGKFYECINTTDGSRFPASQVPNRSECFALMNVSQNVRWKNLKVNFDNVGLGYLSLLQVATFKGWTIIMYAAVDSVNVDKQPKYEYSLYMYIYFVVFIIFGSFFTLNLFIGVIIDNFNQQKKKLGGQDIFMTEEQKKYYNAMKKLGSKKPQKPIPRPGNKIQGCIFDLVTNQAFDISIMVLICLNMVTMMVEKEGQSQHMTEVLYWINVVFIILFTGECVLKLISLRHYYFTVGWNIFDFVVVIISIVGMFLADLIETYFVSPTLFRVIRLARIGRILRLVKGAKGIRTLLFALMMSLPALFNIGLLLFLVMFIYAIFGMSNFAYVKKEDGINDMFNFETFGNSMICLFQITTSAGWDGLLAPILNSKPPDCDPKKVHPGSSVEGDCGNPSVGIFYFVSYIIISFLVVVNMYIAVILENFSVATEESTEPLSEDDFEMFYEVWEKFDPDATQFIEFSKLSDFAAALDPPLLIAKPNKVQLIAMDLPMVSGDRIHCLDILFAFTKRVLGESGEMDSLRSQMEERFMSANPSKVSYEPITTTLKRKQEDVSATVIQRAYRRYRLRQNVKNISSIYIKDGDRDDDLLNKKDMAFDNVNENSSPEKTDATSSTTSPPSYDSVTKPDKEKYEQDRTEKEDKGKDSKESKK
T1 sequence (Q07699 19-218, further chain): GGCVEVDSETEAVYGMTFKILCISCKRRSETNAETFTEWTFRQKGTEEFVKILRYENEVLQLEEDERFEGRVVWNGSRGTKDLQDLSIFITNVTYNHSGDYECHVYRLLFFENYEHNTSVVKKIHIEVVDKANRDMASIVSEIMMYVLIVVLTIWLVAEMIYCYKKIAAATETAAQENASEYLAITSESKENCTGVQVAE
In words: NaV 1.7 current measurement on IonFlux HT. Type of series: cell-based. To be noted: HEK293 cells overexpressing alpha and beta-1 subunits of human Nav1.7. The method, then:
Toxin-550 peptides were assayed on the IonFlux HT using standard running conditions for measurement of NaV 1.7 current. Briefly, HEK293 cells overexpressing the alpha and beta-1 subunits of human Nav1.7 (PrecisION, Millipore) were trypsinized, brought up in serum-free media and allowed to shake at room temperature for 30 minutes. Compounds were diluted into standard extracellular Ringer's solution (ECS) at desired concentration. Cells were washed once with ECS and then brought up in ECS at a concentration of 4 million cells/mL. IonFlux HT plate was set up according to standard protocols.
NaV 1.7 current was measured on the IonFlux according to the following voltage step protocol:
1. The cells were held at −90 mV with a period of 10 seconds.
2. The cells were stepped from −90 mV to −120 mV for 100 ms. • a. then to −10 mV for 30 ms and • b. then back to −90 mV for 30 ms.
Baseline current was allowed to stabilize for 5 minutes, then a control baseline (ECS only) was established. Compound was applied for 20 minutes, and then a positive control (peptide NaV1.7 blocker) was applied.
Leak subtraction was then performed on the data and the resulting currents are analyzed as follows: • 1. […] For a given time (e.g. 10 minutes post-compound addition), percent block was calculated as I/Imax.

The next series has as its target T2, LGR7 (Homo sapiens, UniProt Q9HBX9).
T2 construct: expressed in transfected cells
T2 sequence (Q9HBX9 1-757): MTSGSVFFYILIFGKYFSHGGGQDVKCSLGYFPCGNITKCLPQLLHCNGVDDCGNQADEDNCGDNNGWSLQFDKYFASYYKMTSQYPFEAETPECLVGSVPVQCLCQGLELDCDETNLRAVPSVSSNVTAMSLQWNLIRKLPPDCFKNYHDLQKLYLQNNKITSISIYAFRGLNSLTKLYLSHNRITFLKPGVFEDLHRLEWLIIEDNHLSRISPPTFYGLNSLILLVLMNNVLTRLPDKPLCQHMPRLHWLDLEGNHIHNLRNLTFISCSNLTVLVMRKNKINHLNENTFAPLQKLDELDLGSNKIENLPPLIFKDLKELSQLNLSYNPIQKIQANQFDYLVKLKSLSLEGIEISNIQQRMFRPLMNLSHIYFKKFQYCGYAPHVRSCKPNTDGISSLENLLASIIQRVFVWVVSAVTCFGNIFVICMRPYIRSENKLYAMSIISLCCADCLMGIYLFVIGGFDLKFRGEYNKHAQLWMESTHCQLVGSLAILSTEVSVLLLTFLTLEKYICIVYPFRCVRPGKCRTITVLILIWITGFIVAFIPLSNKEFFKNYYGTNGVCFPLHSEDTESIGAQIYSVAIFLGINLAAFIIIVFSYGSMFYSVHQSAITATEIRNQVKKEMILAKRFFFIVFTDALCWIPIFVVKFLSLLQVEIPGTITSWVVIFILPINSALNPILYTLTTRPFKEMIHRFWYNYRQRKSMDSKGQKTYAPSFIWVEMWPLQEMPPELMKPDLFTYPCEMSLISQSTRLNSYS
Kind of series: LGR7 CRE-Luc reporter gene assay (relaxin bioactivity). Type of series: cell-based. As to conditions: HEK293T cells expressing LGR7 and CRE-Luc; EC50 after non-linear curve fitting. As for the experimental part: Relaxin 2 signals through leucine-rich repeat-containing GPCRs (i.e. LGR7 (RFXR1)). The bioactivity of wild-type relaxin peptides was determined based on the stimulation of adenylate cyclase activity in HEK293T cells stably expressing recombinant LGR7. Stable LGR7 expressing cells were maintained in Dulbecco's modified Eagle's medium/F-12 media supplemented with […] Zeocin (Invitrogen). A cyclic AMP responsive element driven luciferase (CRE-Luc) reporter line was generated by lentiviral transduction of these LGR7 expressing HEK293T cells with CRE-Luc lentivirus (Qiagen) and selected with puromycine (2 μg/mL) for two weeks. A reporter gene assay was used to detect cAMP levels and LGR7 activation by relaxin.
Assay detail: HEK293T cells expressing LGR7 and CRE-Luc are seeded at a density of 5×10^3 cells per well in 50 μl of Dulbecco's modified Eagle's medium/F-12 medium containing 10% FBS in 384-well solid bottom white plates. Cells are pre-incubated at 37° C. for overnight. Different concentrations of relaxin peptides (from 0.01 nM to 1000 nM) were added in triplicate, incubated for 18 hours and luciferase activity was detected by adding […] of Bright Glo (Promega). Luminescence was recorded on Envision (Perkin Elmer). EC50 is calculated after non-linear curve fitting (see FIG. 3 for relaxin H2 dose response curve).

The mark [2] stands for this setting: iv, i.v., read-out: Half-life (hours) i.v. (converted).
The mark [3] stands for this setting: sc, s.c., read-out: Half-life (hours) s.c. (converted).

As for `CCCCCCCCCCCCCC(=O)NCCOCCOCCNC(=O)CSC[C@H](NC(=O)[C@H](Cc1c[nH]c2ccccc12)NC(=O)[C@@H](NC(=O)[C@H](CO)NC(=O)[C@H](CCSC)NC(=O)CNC(=O)[C@@H]1CSSC[C@@H](C(=O)O)NC(=O)[C@H](Cc2ccccc2)NC(=O)[C@H](CCCNC(=N)N)NC(=O)[C@H](C)NC(=O)[C@H](CC(C)C)NC(=O)[C@H](CO)NC(=O)[C@H](CCCNC(=N)N)NC(=O)[C@H](CCCCN)NC(=O)[C@H]([C@@H](C)O)NC(=O)[C@@H]2CSSC[C@H](NC(=O)[C@H](CCCCN)NC(=O)[C@H](CC(N)=O)NC(=O)[C@H](C)NC(=O)[C@H](CC(C)C)NC(=O)[C@H](C)NC(=O)[C@H](CO)NC(=O)[C@H](Cc3ccc(O)cc3)NC(=O)[C@H](CC(C)C)NC(=O)[C@@H](N)CCC(N)=O)C(=O)N[C@@H](CSSC[C@H](NC(=O)[C@H](CC(C)C)NC(=O)[C@H](CCCCN)NC(=O)[C@@H](NC(=O)[C@@H](NC(=O)[C@H](CCC(=O)O)NC(=O)[C@H](CCC(=O)O)NC(=O)[C@H](CCSC)NC(=O)[C@H](Cc3c[nH]c4ccccc34)NC(=O)[C@H](CO)NC(=O)[C@H](C)N)C(C)C)[C@@H](C)CC)C(=O)NCC(=O)N[C@@H](CCCNC(=N)N)C(=O)N[C@@H](CCC(=O)O)C(=O)N[C@@H](CC(C)C)C(=O)N[C@@H](C(C)C)C(=O)N[C@@H](CCCNC(=N)N)C(=O)N[C@@H](C)C(=O)N[C@@H](CCC(N)=O)C(=O)N[C@@H]([C@@H](C)CC)C(=O)N[C@@H](C)C(=O)N[C@@H]([C@@H](C)CC)C(=O)N1)C(=O)N[C@@H](Cc1c[nH]cn1)C(=O)N[C@@H](C(C)C)C(=O)NCC(=O)N2)[C@@H](C)O)C(=O)O` [Relaxin-B-D1AS29C-FA1], the figures for the half-life in series [1] (setting [2]) and in series [1] (setting [3]) were 0.5 h and 1.2 h, respectively. Take `CC[C@H](C)[C@@H]1NC(=O)[C@H](C)NC(=O)[C@H]([C@@H](C)CC)NC(=O)[C@H](CCC(N)=O)NC(=O)[C@H](C)NC(=O)[C@H](CCCNC(=N)N)NC(=O)[C@H](C(C)C)NC(=O)[C@H](CC(C)C)NC(=O)[C@H](CCC(=O)O)NC(=O)[C@H](CCCNC(=N)N)NC(=O)CNC(=O)[C@@H](NC(=O)[C@H](CC(C)C)NC(=O)[C@H](CCCCN)NC(=O)[C@@H](NC(=O)[C@@H](NC(=O)[C@H](CCC(=O)O)NC(=O)[C@H](CCC(=O)O)NC(=O)[C@H](CCSC)NC(=O)[C@H](Cc2c[nH]c3ccccc23)NC(=O)[C@H](CO)NC(=O)[C@H](C)N)C(C)C)[C@@H](C)CC)CSSC[C@@H]2NC(=O)[C@@H](NC(=O)[C@H](CCCCN)NC(=O)[C@H](CC(N)=O)NC(=O)[C@H](C)NC(=O)[C@H](CC(C)C)NC(=O)[C@H](C)NC(=O)[C@H](CO)NC(=O)[C@H](Cc3ccc(O)cc3)NC(=O)[C@H](CC(C)C)NC(=O)[C@@H](N)CSCC(=O)NCCOCCOCCC(=O)NCCOCCOCCC(=O)NCCCC[C@H](NC(=O)CCCCCCCCCCCCCCCCC(=O)O)C(=O)O)CSSC[C@H](NC(=O)CNC(=O)[C@H](C(C)C)NC(=O)[C@H](Cc3c[nH]cn3)NC2=O)C(=O)N[C@@H]([C@@H](C)O)C(=O)N[C@@H](CCCCN)C(=O)N[C@@H](CCCNC(=N)N)C(=O)N[C@@H](CO)C(=O)N[C@@H](CC(C)C)C(=O)N[C@@H](C)C(=O)N[C@@H](CCCNC(=N)N)C(=O)N[C@@H](Cc2ccccc2)C(=O)N[C@H](C(=O)O)CSSC[C@@H](C(=O)NCC(=O)N[C@@H](CCSC)C(=O)N[C@@H](CO)C(=O)N[C@H](C(=O)N[C@@H](Cc2c[nH]c3ccccc23)C(=O)N[C@@H](CO)C(=O)O)[C@@H](C)O)NC1=O` [Relaxin-B-D1A, A-Q1C-FA2]: the half-life in series [1] (setting [2]) is 3.5 h; in series [1] (setting [3]) it was 7.8 h. On to “550-: Toxin-550 peptide, probably SEQ ID NO: 30 (ECIGMFKSCDPENDKCCKGRTCSRKHRWCKYKL) [Entry 550-]”, for which the “Activity: % block at 100 nM” value in the series with human Nav1.7 is 87% block.

On to “550-4-GSCGG-FA1: 550-4-GSCGG (SEQ ID NO: 28) with lipid FA1 (GSCGGECIGMFKSCDPENDKCCKGRTCSRKHRWCKYKL; cysteine pairing not given here; also: lipid FA1)”, for which the “Activity: % block at 100 nM” value in the series with human Nav1.7 was 85% block. As to `CCCCCCCCCCCCCC(=O)NCCOCCOCCNC(=O)CSC[C@H](NC(=O)[C@H](Cc1c[nH]c2ccccc12)NC(=O)[C@@H](NC(=O)[C@H](CO)NC(=O)[C@H](CCSC)NC(=O)CNC(=O)[C@@H]1CSSC[C@@H](C(=O)O)NC(=O)[C@H](Cc2ccccc2)NC(=O)[C@H](CCCNC(=N)N)NC(=O)[C@H](C)NC(=O)[C@H](CC(C)C)NC(=O)[C@H](CO)NC(=O)[C@H](CCCNC(=N)N)NC(=O)[C@H](CCCCN)NC(=O)[C@H]([C@@H](C)O)NC(=O)[C@@H]2CSSC[C@H](NC(=O)[C@H](CCCCN)NC(=O)[C@H](CC(N)=O)NC(=O)[C@H](C)NC(=O)[C@H](CC(C)C)NC(=O)[C@H](C)NC(=O)[C@H](CO)NC(=O)[C@H](Cc3ccc(O)cc3)NC(=O)[C@H](CC(C)C)NC(=O)[C@@H](N)CCC(N)=O)C(=O)N[C@@H](CSSC[C@H](NC(=O)[C@H](CC(C)C)NC(=O)[C@H](CCCCN)NC(=O)[C@@H](NC(=O)[C@@H](NC(=O)[C@H](CCC(=O)O)NC(=O)[C@H](CCC(=O)O)NC(=O)[C@H](CCSC)NC(=O)[C@H](Cc3c[nH]c4ccccc34)NC(=O)[C@H](CO)NC(=O)[C@H](CC(=O)O)NC(=O)CNC(=O)CNC(=O)[C@H](CO)NC(=O)CNC(=O)[C@H](CCC(N)=O)NC(=O)[C@H](Cc3ccccc3)NC(=O)[C@H](Cc3ccc(O)cc3)NC(=O)[C@H](CC(C)C)NC(=O)[C@H](CC(N)=O)NC(=O)[C@H](CCC(=O)O)NC(=O)[C@H](Cc3c[nH]cn3)NC(=O)[C@H](Cc3c[nH]cn3)NC(=O)[C@H](Cc3c[nH]cn3)NC(=O)[C@H](Cc3c[nH]cn3)NC(=O)[C@H](Cc3c[nH]cn3)NC(=O)[C@H](Cc3c[nH]cn3)NC(=O)[C@H](Cc3c[nH]cn3)NC(=O)[C@@H](N)Cc3c[nH]cn3)C(C)C)[C@@H](C)CC)C(=O)NCC(=O)N[C@@H](CCCNC(=N)N)C(=O)N[C@@H](CCC(=O)O)C(=O)N[C@@H](CC(C)C)C(=O)N[C@@H](C(C)C)C(=O)N[C@@H](CCCNC(=N)N)C(=O)N[C@@H](C)C(=O)N[C@@H](CCC(N)=O)C(=O)N[C@@H]([C@@H](C)CC)C(=O)N[C@@H](C)C(=O)N[C@@H]([C@@H](C)CC)C(=O)N1)C(=O)N[C@@H](Cc1c[nH]cn1)C(=O)N[C@@H](C(C)C)C(=O)NCC(=O)N2)[C@@H](C)O)C(=O)O` [Tev-Relaxin-B-S29C-FA1], the EC50 on LGR7 turned out to be 1 nM.
